Laboratory results published in patent US20100093086A1 (RESEARCH FOUNDATION OF STATE UNIVERSITY OF NEW YORK, published 2010).
Bridges are numbered along the chain shown (N, C = ends). [ ]: non-standard residue; d: D form. code β = tetrazole-bearing lysine Lys(tetrazole), tetrazole half of pyrazoline cross-linker; L3 = not defined here

T1: GST-MDMX containing full-length human MDMX (human, UniProt O15151 1-490)
T1 construct: mature; Expressed in E. coli and purified on glutathione-agarose; not shown: GST tag
T1 sequence (looked up): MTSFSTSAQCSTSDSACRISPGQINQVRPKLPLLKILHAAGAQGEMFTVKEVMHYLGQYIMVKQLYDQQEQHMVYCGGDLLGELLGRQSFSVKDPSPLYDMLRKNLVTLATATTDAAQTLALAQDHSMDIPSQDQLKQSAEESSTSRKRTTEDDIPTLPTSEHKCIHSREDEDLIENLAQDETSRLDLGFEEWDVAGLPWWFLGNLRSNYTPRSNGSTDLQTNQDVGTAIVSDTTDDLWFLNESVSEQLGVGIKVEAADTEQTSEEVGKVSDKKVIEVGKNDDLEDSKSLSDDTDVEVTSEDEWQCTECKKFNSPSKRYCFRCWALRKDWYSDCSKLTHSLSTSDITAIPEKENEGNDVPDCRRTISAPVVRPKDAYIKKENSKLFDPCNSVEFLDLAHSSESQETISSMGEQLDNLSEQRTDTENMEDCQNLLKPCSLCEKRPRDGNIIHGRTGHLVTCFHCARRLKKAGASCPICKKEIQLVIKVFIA


Legend:
[1] = molecular target: T1, GST-MDMX containing full-length human …; assay: competition ELISA: peptide + GST-MDMX on plated His6-p53
Experimental: ELISA plates were incubated with 2.5 μg/ml His6-p53 in phosphate-buffered saline (PBS) for 16 h. After washing with PBS+0.1% Tween 20 (PBST), the plates were blocked with PBS+5% nonfat dry milk+0.1% Tween 20 (PBSMT) for 0.5 hour. The peptides were dissolved in DMSO. […] The plates were developed by incubation with TMB peroxidase substrate (KPL) and measured by absorbance at 450 nm.

[2] = molecular target: T2, GST-MDM2 containing full-length human MDM2 (human, UniProt Q00987 1-491); assay: competition ELISA: peptide + GST-MDM2 on plated His6-p53
T2 construct: mature; Expressed in E. coli and purified on glutathione-agarose; also called GST-HDM2; not shown: GST tag
T2 sequence (Q00987 whole entry): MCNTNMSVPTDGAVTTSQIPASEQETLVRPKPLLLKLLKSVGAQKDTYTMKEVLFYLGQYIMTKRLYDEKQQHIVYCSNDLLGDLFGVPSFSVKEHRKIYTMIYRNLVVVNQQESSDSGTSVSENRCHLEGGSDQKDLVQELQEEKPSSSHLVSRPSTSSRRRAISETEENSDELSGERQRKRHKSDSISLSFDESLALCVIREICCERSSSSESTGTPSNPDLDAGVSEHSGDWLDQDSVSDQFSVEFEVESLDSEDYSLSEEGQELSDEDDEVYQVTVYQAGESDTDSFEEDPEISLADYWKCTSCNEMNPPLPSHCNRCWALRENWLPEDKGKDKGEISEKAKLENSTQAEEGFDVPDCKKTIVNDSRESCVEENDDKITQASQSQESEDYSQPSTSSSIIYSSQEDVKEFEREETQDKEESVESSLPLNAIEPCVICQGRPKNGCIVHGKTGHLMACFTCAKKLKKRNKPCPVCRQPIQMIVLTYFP

| Binder | IC50 [1] | IC50 [2] |
| --- | --- | --- |
| Ac-LTFXHYWXQLTS-NH2 (bridge 4-8 via L3; not fully specified (residues 4, 8); printed as LTFαHYWβQLTS, Stapled peptide) [sPDI-4] | 390 nM | 87 nM |
| Ac-LTFXHYWXRLTS-NH2 (bridge 4-8 via L3; not fully specified (residues 4, 8); printed as LTFαHYWβRLTS, Stapled peptide) [sPDI-8] | 231 nM | 55 nM |
| Ac-LTFXHYWXRLRS-NH2 (bridge 4-8 via L3; not fully specified (residues 4, 8); printed as LTFαHYWβRLRS, Stapled peptide) [sPDI-9] | 525 nM | 179 nM |
| Ac-TSFXRYWXRLSP-NH2 (bridge 4-8 via L3; not fully specified (residues 4, 8); printed as TSFαRYWβRLSP; also: pyrazoline cross-linker L3 between α and β, Stapled peptide) [sPMI-4] | 1840 nM | 1230 nM |
| Ac-TSFXQYWNLLXP-NH2 (bridge 4-11 via L3; not fully specified (residues 4, 11); printed as TSFαQYWNLLβP; also: pyrazoline cross-linker L3 between α and β, Stapled peptide) [sPMI-3] | 1490 nM | 23 nM |

Results, then the binder that gave them:

| IC50 [1] | IC50 [2] | Binder |
| --- | --- | --- |
| 3650 nM | 1080 nM | Ac-TSFAXYWNXLSP-NH2 (bridge 5-9 via L3; not fully specified (residues 5, 9); printed as TSFAαYWNβLSP; also: pyrazoline cross-linker L3 between α and β, Stapled peptide) [sPMI-2] |
| 298 nM | 597 nM | Ac-TSFXQYW[code β]RLRP-NH2 (bridge 4-8; not fully specified (residue 4, bridges); printed as TSFαQYWβRLRP; also: pyrazoline cross-linker L3 between α and β, Stapled peptide) [sPMI-5] |
